In patent US20240417436A1 (BRIGHT PEAK THERAPEUTICS, published 2024):
Like-named read-outs stand apart in the source and are kept apart here. Primed or numbered codes have the meaning given here. [ ]: non-standard residue; d: D form. Ygp″ = O-(PEG8-amino)-tyrosine (O-(8x polyethylene glycol-amino)-tyrosine); Yn3″ = O-(PEG9-azido)-tyrosine (O-(9x polyethylene glycol-azido)-tyrosine); Ygp = O-(8x polyethylene glycol-amino)-tyrosine; Yn3 = O-(9x polyethylene glycol-azido)-tyrosine; hSer = N[C@@H](CCO)C(=O)O; Nle = CCCC[C@H](N)C(=O)O

T1: IL-2 receptor βγ complex on pan T cells (human, UniProt P14784 27-551; P31785 23-369)
T1 sequence (looked up) 1: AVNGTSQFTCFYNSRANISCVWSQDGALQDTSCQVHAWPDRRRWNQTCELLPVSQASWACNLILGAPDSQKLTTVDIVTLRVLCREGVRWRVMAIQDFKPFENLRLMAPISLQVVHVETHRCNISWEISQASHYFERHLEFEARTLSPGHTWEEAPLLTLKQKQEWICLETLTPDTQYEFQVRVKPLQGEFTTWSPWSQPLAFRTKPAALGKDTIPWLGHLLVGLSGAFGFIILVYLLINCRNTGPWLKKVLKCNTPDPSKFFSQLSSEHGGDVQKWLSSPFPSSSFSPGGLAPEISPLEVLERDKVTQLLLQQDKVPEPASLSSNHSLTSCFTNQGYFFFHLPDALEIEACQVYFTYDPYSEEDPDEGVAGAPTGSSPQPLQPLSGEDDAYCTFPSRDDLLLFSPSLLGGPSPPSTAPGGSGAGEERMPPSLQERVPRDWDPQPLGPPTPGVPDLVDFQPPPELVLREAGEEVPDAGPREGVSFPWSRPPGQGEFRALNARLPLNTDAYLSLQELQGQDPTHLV
T1 sequence (looked up) 2: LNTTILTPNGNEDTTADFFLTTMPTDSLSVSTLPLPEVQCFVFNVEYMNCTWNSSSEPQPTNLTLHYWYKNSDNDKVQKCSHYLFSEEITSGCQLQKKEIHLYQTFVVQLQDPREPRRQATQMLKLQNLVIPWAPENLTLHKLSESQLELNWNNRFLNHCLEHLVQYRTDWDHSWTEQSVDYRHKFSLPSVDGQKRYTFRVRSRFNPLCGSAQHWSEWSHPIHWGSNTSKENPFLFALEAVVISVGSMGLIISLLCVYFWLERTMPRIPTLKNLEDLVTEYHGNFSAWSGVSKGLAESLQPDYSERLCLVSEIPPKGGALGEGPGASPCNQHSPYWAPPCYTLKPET


Tests used:
[1] = molecular target: T1, IL-2 receptor βγ complex on pan T cells; test: cell-based or functional assay
[2] = molecular target: T1, IL-2 receptor βγ complex on pan T cells; test: cell-based or functional assay; remark: listed apart in the source

Row | Binder | Average EC50, pSTAT5 assay in pan T cells, intact molecule [1] [nM] | Average EC50, pSTAT5 assay in pan T cells, MMP2 cleaved molecule [1] [nM] | other results
1 | CMP-136, MMP2 cleaved (ligand, not fully specified; as CMP-136 but cleavable peptide cut by MMP2 (macrocycle opened); cut site not given) APTSSSTKKTQLQLEHLLLDLQXILNGIENYKNPKLTRXLXYKFYXPKKATELKHLQCLEEELKPLEEVLXLAQSKNFHLRPRDLISNINVIVLELKGSETTFXCEYADETATIVEFLNRWITFSQSIISTLT |  |  | Average EC50, pSTAT5 assay in pan T cells, MMP2 cleaved molecule [2]: 2.4 nM
2 | CMP-138, MMP2 cleaved (ligand, not fully specified; as CMP-138 but cleavable peptide cut by MMP2 (macrocycle opened); cut site not given) APTSSSTKKTQLQLEHLLLDLQXILNGIENYKNPKLTRXLXYKFYXPKKATELKHLQCLEEELKPLEEVLXLAQSKNFHLRPRDLISNINVIVLELKGSETTFXCEYADETATIVEFLNRWITFSQSIISTLT |  |  | Average EC50, pSTAT5 assay in pan T cells, MMP2 cleaved molecule [2]: 2.32 nM
3 | CMP-147 (ligand, not fully specified (residue 13); ends and bridges not checked; also: cleavable moiety on Lys13 side chain, structure not given here) APTSSSTKKTQLKLEHLLLDLQ[Nle]ILNGINNYKNPKLTR[Nle]L[hSer][Yn3]KF[Ygp][Nle]PKKATELKHLQCLEEELKPLEEVL[hSer]LAQSKNFHLRPRDLISNINVIVLELKGSETTF[hSer]CEYADETATIVEFLNRWITFSQSIISTLT | 3.86 |  | 
4 | CMP-146 (ligand, not fully specified (residue 11); ends and bridges not checked; also: cleavable moiety on Lys11 side chain, structure not given here) APTSSSTKKTKLQLEHLLLDLQ[Nle]ILNGINNYKNPKLTR[Nle]L[hSer][Yn3]KF[Ygp][Nle]PKKATELKHLQCLEEELKPLEEVL[hSer]LAQSKNFHLRPRDLISNINVIVLELKGSETTF[hSer]CEYADETATIVEFLNRWITFSQSIISTLT | 4.29 |  | 
5 | CMP-146, MMP2 cleaved (ligand, not fully specified (residue 11); ends and bridges not checked; also: MMP2-cut remnant of cleavable moiety on Lys11 side chain, not given here) APTSSSTKKTKLQLEHLLLDLQ[Nle]ILNGINNYKNPKLTR[Nle]L[hSer][Yn3]KF[Ygp][Nle]PKKATELKHLQCLEEELKPLEEVL[hSer]LAQSKNFHLRPRDLISNINVIVLELKGSETTF[hSer]CEYADETATIVEFLNRWITFSQSIISTLT |  | 0.92 | 
6 | CMP-144, MMP2 cleaved (ligand, not fully specified (residue 23); ends and bridges not checked; also: MMP2-cut remnant of cleavable moiety on Lys23 side chain, not given here) APTSSSTKKTQLQLEHLLLDLQKILNGINNYKNPKLTR[Nle]L[hSer][Yn3]KF[Ygp][Nle]PKKATELKHLQCLEEELKPLEEVL[hSer]LAQSKNFHLRPRDLISNINVIVLELKGSETTF[hSer]CEYADETATIVEFLNRWITFSQSIISTLT |  | 0.63 | 
7 | CMP-145, MMP2 cleaved (ligand, not fully specified (residue 23, bridges); also: Lys23 side chain bears KKPLGLAG (branched PEG) peptide cut by MMP2, remnants stay attached, cut site not given here) APTSSSTKKTQLQLEHLLLDLQKILNGINNYKNPKLTR[Nle]L[hSer][Yn3]KF[Ygp][Nle]PKKATELKHLQCLEEELKPLEEVL[hSer]LAQSKNFHLRPRDLISNINVIVLELKGSETTF[hSer]CEYADETATIVEFLNRWITFSQSIISTLT |  | 1.43 | 
8 | CMP-137, MMP2 cleaved (ligand, not fully specified (residue 29, N-terminus); ends and bridges not checked; also: macrocycle opened by MMP2, Ala1 N-terminus and Glu29 side chain each carry PEG24-linked peptide remnant, cut site not given here) APTSSSTKKTQLQLEHLLLDLQ[Nle]ILNGIENYKNPKLTR[Nle]L[hSer][Yn3″]KF[Ygp″][Nle]PKKATELKHLQCLEEELKPLEEVL[hSer]LAQSKNFHLRPRDLISNINVIVLELKGSETTF[hSer]CEYADETATIVEFLNRWITFSQSIISTLT |  |  | Average EC50, pSTAT5 assay in pan T cells, MMP2 cleaved molecule [2]: 4.09 nM

Second part, led by results:

Row | Average EC50, pSTAT5 assay in pan T cells, intact molecule [1] [nM] | Average EC50, pSTAT5 assay in pan T cells, MMP2 cleaved molecule [1] [nM] | Binder | other results
9 | 6.38 |  | CMP-150 (ligand, not fully specified (residue 22); ends and bridges not checked; also: cleavable moiety on Lys22 side chain, structure not given here) APTSSSTKKTQLQLEHLLLDLK[Nle]ILNGINNYKNPKLTR[Nle]L[hSer][Yn3]KF[Ygp][Nle]PKKATELKHLQCLEEELKPLEEVL[hSer]LAQSKNFHLRPRDLISNINVIVLELKGSETTF[hSer]CEYADETATIVEFLNRWITFSQSIISTLT | 
10 | 46.7 |  | CMP-149 (ligand, not fully specified (residue 19); ends and bridges not checked; also: cleavable moiety on Lys19 side chain, structure not given here) APTSSSTKKTQLQLEHLLKDLQ[Nle]ILNGINNYKNPKLTR[Nle]L[hSer][Yn3]KF[Ygp][Nle]PKKATELKHLQCLEEELKPLEEVL[hSer]LAQSKNFHLRPRDLISNINVIVLELKGSETTF[hSer]CEYADETATIVEFLNRWITFSQSIISTLT | 
11 | 3.57 |  | CMP-148 (ligand, not fully specified (residue 15); ends and bridges not checked; also: cleavable moiety on Lys15 side chain, structure not given here) APTSSSTKKTQLQLKHLLLDLQ[Nle]ILNGINNYKNPKLTR[Nle]L[hSer][Yn3]KF[Ygp][Nle]PKKATELKHLQCLEEELKPLEEVL[hSer]LAQSKNFHLRPRDLISNINVIVLELKGSETTF[hSer]CEYADETATIVEFLNRWITFSQSIISTLT | 
12 |  | 0.45 | CMP-150, MMP2 cleaved (ligand, also: K22 side chain bears remnant of cleavable peptide after MMP2 cut, cut site not given here) APTSSSTKKTQLQLEHLLLDLK[Nle]ILNGINNYKNPKLTR[Nle]L[hSer][Yn3]KF[Ygp][Nle]PKKATELKHLQCLEEELKPLEEVL[hSer]LAQSKNFHLRPRDLISNINVIVLELKGSETTF[hSer]CEYADETATIVEFLNRWITFSQSIISTLT | 
13 |  | 9.56 | CMP-149, MMP2 cleaved (ligand, not fully specified (residue 19); ends and bridges not checked; also: MMP2-cut remnant of cleavable moiety on Lys19 side chain, not given here) APTSSSTKKTQLQLEHLLKDLQ[Nle]ILNGINNYKNPKLTR[Nle]L[hSer][Yn3]KF[Ygp][Nle]PKKATELKHLQCLEEELKPLEEVL[hSer]LAQSKNFHLRPRDLISNINVIVLELKGSETTF[hSer]CEYADETATIVEFLNRWITFSQSIISTLT | 
14 |  | 0.95 | CMP-148, MMP2 cleaved (ligand, not fully specified (residue 15); ends and bridges not checked; also: MMP2-cut remnant of cleavable moiety on Lys15 side chain, not given here) APTSSSTKKTQLQLKHLLLDLQ[Nle]ILNGINNYKNPKLTR[Nle]L[hSer][Yn3]KF[Ygp][Nle]PKKATELKHLQCLEEELKPLEEVL[hSer]LAQSKNFHLRPRDLISNINVIVLELKGSETTF[hSer]CEYADETATIVEFLNRWITFSQSIISTLT | 
15 |  | 1.29 | CMP-147, MMP2 cleaved (ligand, not fully specified (residue 13); ends and bridges not checked; also: MMP2-cut remnant of cleavable moiety on Lys13 side chain, not given here) APTSSSTKKTQLKLEHLLLDLQ[Nle]ILNGINNYKNPKLTR[Nle]L[hSer][Yn3]KF[Ygp][Nle]PKKATELKHLQCLEEELKPLEEVL[hSer]LAQSKNFHLRPRDLISNINVIVLELKGSETTF[hSer]CEYADETATIVEFLNRWITFSQSIISTLT | 
